Measurements as given in article PMC4936896, “Primate TRIM5 proteins form hexagonal nets on HIV-1 capsids” (eLife, 2016).

B1: owl monkey TRIMCyp (Aotus trivirgatus) (natural protein)
chain: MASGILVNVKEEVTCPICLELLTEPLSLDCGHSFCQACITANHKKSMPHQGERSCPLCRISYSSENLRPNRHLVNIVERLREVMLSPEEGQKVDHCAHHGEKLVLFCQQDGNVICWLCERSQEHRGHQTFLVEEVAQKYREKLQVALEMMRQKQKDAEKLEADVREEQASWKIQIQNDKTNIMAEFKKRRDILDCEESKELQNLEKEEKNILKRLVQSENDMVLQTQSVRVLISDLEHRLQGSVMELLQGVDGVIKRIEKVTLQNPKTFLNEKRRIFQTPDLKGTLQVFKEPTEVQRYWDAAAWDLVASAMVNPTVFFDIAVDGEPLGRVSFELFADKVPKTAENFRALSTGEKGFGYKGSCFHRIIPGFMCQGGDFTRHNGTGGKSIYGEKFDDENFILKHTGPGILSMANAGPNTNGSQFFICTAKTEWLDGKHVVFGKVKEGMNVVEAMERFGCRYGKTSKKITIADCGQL
B2: chimpanzee TRIM5α (Pan troglodytes) (natural protein, chimpanzee (Pan troglodytes), UniProt Q5D7J1 1-493, looked up)
chain: MASGILVNVKEEVTCPICLELLTQPLSLDCGHSFCQACLTANHKKSMLDKGESSCPVCRISYQPENIRPNRHVANIVEKLREVKLSPEGQKVDHCAHHGEKLLLFCQEDGKVICWLCERSQEHRGHHTFLTEEVAREYQVKLQAALEMLRQKQQEAEELEADIREEKASWKTQIQYDKTNVLADFEQLRDILDWEESNELQNLEKEEEDILKSLTKSETEMVQQTQSVRELISDLERRLQGSVMELLQGVDGVIKRMENVTLKKPETFPKNQRRVFRAPDLKGMLEVFRELTDVRRYWVDVTVAPNNISCAVISEDMRQVSSPKPQIIYGARGTRYQTFMNFNYCTGILGSQSITSGKHYWEVDVSKKSAWILGVCAGFQPDAMCNIEKNENYQPKYGYWVIGLEEGVKCSAFQDGSFHTPSAPFIVPLSVIICPDRVGVFLDYEACTVSFFNITNHGSLIYKFSHCSFSQPVFPYLNPRKCGVPMTLCSPSS
notes: also called TRIM5αcpz
B3: proteolysis-resistant owl monkey TRIMCyp_(K283D,Q287D) (natural protein)
chain: not shown
B4: African green monkey TRIM5α (Chlorocebus pygerythrus) (natural protein, UniProt Q5C8U4 1-515, looked up)
chain: MASGILVNVKEEVTCPICLELLTEPLSLPCGHSLCQACITANHKESMLYKEEERSCPVCRISYQPENIQPNRHVANIVEKLREVKLSPEEGQKVDHCARHGEKLLLFCQEDSKVICWLCERSQEHRGHHTFLMEEVAQEYHVKLQTALEMLRQKQQEAEKLEADIREEKASWKIQIDYDKTNVSADFEQLREILDWEESNELQNLEKEEEDILKSLTKSETEMVQQTQYMRELISDLEHRLQGSMMELLQGVDGIIKRVENMTLKKPKTFHKNQRRVFRAPDLKGMLDMFRELTDVRRYWVDVTLAPNNISHAVIAEDKRQVSYRNPQIMYQSPGSLFGSLTNFSYCTGVPGSQSITSGKLTNFNYCTGVLGSQSITSGKHYWEVDVSKKSAWILGVCAGFQPDATYNIEQNENYQPKYGYWVIGLQEGDKYSVFQDGSSHTPFAPFIVPLSVIICPDRVGVFVDYEACTVSFFNITNHGFLIYKFSQCSFSKPVFPYLNPRKCTVPMTLCSPSS
notes: also called TRIM5α_(AGMpyg); TRIM5_(AGMpyg)

Target: the molecule itself
Test: SEC; final gel filtration step, HiLoad 16/600 Superdex 200 in 20 mM CHES, 100 nM ZnCl2, 1 mM TCEP, pH 10.0, 4°C; oligomer judged from retention time

Stoichiometry N, 2:
B1
B2
B3
B4
